{"source": "the nanobody polyreactivity screen of Harvey et al. (2022)", "data": [{"test": "yeast display, Sf9 membrane polyspecificity reagent, FACS + sequencing; frameworks hold sequencing errors", "method_in_brief": "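Genes from sorted yeast were amplified by colony PCR, read by MiSeq 2 × 250 sequencing and filtered on CDR length. These cells carried a synthetic nanobody library in Saccharomyces cerevisiae BJ5465 and were sorted by FACS into low and high (top ~1%) gates on anti-HA and streptavidin fluorescence. Polyreactivity is labelled according to the gate of origin.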", "values": [{"sequence": "QVQLVESGGGLVQAGGSLRLSCAASGLTFEYYAMGWYRQAPGKERELVAAISRRGSTYYADSVKGRFTISRDNAKNTVYLQMNSLKPEDTAVYYCNAVYYWYKGDYWGQGTQVTVSS", "polyreactivity (PSR sort gate)": "high polyreactivity"}, {"sequence": "QVQLVESGGGLVQAGGSLRLSCAASGLTFFLYAMGWYRQAPGKERELVAAISSRGGSTYYADSVKGRFTISRDNAKNTVYLQMNSLKTEDTAVYYCAAATKGDEDYWGQGTQVTVSS", "polyreactivity (PSR sort gate)": "high polyreactivity"}, {"sequence": "QVQLVESGGGLVQAGGSLRLSCAASGLTFFYYAMGWYRQAPGKERELVASITWRSGSTYYADSVKGRFTISRDNAKNTVYLQMNSLKPEDTAVYYCAAYPYTYLQLMDYWGQGTQVTVSS", "polyreactivity (PSR sort gate)": "high polyreactivity"}, {"sequence": "QVQLVESGGGLVQAGGSLRLSCAASGLTFGAYAMGWYRQAPGKEREFVAAITYSGGSTNYADSVKGRFTISRDNAMNTVYLQMNSLKPEDTAVYYCNAGYYSPWAFYPYDYWGQGTQVTVSS", "polyreactivity (PSR sort gate)": "high polyreactivity"}, {"sequence": "QVQLVESGGGLVQAGGSLRLSCAASGLTFGAYAMGWYRQAPGKERELVSAISWSGNTYYADSVKGRFTISRDNAKNTVYLQMNSLKPEDTAGYYCAVRSYGHGFDYWGQGTQVTVSS", "polyreactivity (PSR sort gate)": "high polyreactivity"}, {"sequence": "QVQLVESGGGLVQAGGSLRLSCAASGLTFGGNAMGWYSQAPGKERELVAALSWSDDTTDYADSVKGRFTISRDNAKYTVYLQMNSLKPEDTAVYYCAARLPFEHVDYWGQGTQVTVSS", "polyreactivity (PSR sort gate)": "low polyreactivity"}, {"sequence": "QVQLVESGGGLVQAGGSLRLSCAASGLTFGGYAMGWYRQAPGKERELVAAISRSGTSTYYADSVKGRFTISRDNAKNTVYLQMNSLKPEDTAVYYCAKELYSWLQGYRGEGTMDYWGQGTQVTVSS", "polyreactivity (PSR sort gate)": "high polyreactivity"}, {"sequence": "QVQLVESGGGLVQAGGSLRLSCAASGLTFGIYDMGWYRQAPGKERELVAGIRWSGGDSTYYADSVKGRFTNSRDNAKNTVYLQMNSLKPEDTAVYYCAARLYRWGGGLSRDKHGYWGQGTQVTVSS", "polyreactivity (PSR sort gate)": "low polyreactivity"}, {"sequence": "QVQLVESGGGLVQAGGSLRLSCAASGLTFGNYAMGWDRQAPGKERELVAAISWGGGITYYADSVKGRFTISRDIAKNTVYLQMNSLKPEDTAVYYCAADVYFNSTPDYLYDYWGQGTQVTVSS", "polyreactivity (PSR sort gate)": "low polyreactivity"}, {"sequence": "QVQLVESGGGLVQAGGSLRLSCAASGLTFGPYAMGWYRQAPGKERELVAAITSGGRTYYADSVKGRFTISRDNAKNTVYLKMNSLKPEDTAVYYCAADPLSGYDYWGQGTQVTVSS", "polyreactivity (PSR sort gate)": "low polyreactivity"}, {"sequence": "QVQLVESGGGLVQAGGSLRLSCAASGLTFGSKAMGWYRQAPGKERELLAAISWNGGSTSYADSVKGRFTISRDNAKHTVYLQMNSLKPEDTAVNYCAADYFDSSYQPTDSILYEYWGQGTQVTVSS", "polyreactivity (PSR sort gate)": "low polyreactivity"}, {"sequence": "QVQLVESGGGLVQAGGSLRLSCAASGLTFGWNAMGWYRQAPGKERESVAAISYNGVSTHYADSVKGRFTISRDNAKNTVYLQMNSLKPEDTAVYYCAARALTWPYGGTAPRLYNYWGQGTQVTVSS", "polyreactivity (PSR sort gate)": "low polyreactivity"}, {"sequence": "QVQLVESGGGLVQAGGSLRLSCAASGLTFGYYAMGWYRQAPGKERELVAAISSSGGRTYYADSVKGRFTISRDNAKNTVYLQMNSLKPEDSAVYYCAKSRYATQTDYNYWGQGTQVTVSS", "polyreactivity (PSR sort gate)": "high polyreactivity"}, {"sequence": "QVQLVESGGGLVQAGGSLRLSCAASGLTFGYYAMGWYRQAPGKERELVAVISGGGGTHYADSVKGRFTISRDNAKNTVYLQMNSLKPEDTAVYYCAAYTYRRYDYWGQGTQVTVSS", "polyreactivity (PSR sort gate)": "high polyreactivity"}, {"sequence": "QVQLVESGGGLVQAGGSLRLSCAASGLTFHRYAMGWYRQAPGKERELVAAINYSGGRTYYADSVKGRFTISRDNAKNTVYLQMNSLKPEDTAVYYCAASLYRRQMDHWGQGTQVTVSS", "polyreactivity (PSR sort gate)": "high polyreactivity"}, {"sequence": "QVQLVESGGGLVQAGGSLRLSCAASGLTFHYYDMGWYRQAPGKERELVAAISTGGGTYYADSVKGRFTISRDNAKNTVYLQMNSLKPEDTAVYYCAAETQHSYFVFSYYWGQGTQVTVSS", "polyreactivity (PSR sort gate)": "high polyreactivity"}, {"sequence": "QVQLVESGGGLVQAGGSLRLSCAASGLTFIKYAMGWYRQAPGKEREFVADISKRGGTTYYADSVKGRFTISRDTEKNTVYLQMNSLKPEDTAVYYCAARQYLNVYYRYDYWGQGTQVTVSS", "polyreactivity (PSR sort gate)": "high polyreactivity"}, {"sequence": "QVQLVESGGGLVQAGGSLRLSCAASGLTFKKYAMGWYRPAPGKERELVAAISSGSTTYYADSVKGRFTISRDNAKNTVYLQMNSLKPEDTAFYYCAARRKGTVASMGYWGQGTQVTVSS", "polyreactivity (PSR sort gate)": "high polyreactivity"}, {"sequence": "QVQLVESGGGLVQAGGSLRLSCAASGLTFKRNAMGWYRQAPGKERELVAAIRYSTDSTNYADSVKGRFTISRDNAMYTVYLQMNSLKPEDTAVYYCAKDKQDYEYWGQGTQVTVSS", "polyreactivity (PSR sort gate)": "low polyreactivity"}, {"sequence": "QVQLVESGGGLVQAGGSLRLSCAASGLTFKRYAMGWYRQAPGKERELVASITGNGGSTYYADSVKGRFTISRDNAKNTVYLQMNSLKPEDTAVYYCNARRYVRTSQQPLYDYWGQGTQVTVSS", "polyreactivity (PSR sort gate)": "high polyreactivity"}, {"sequence": "QVQLVESGGGLVQAGGSLRLSCAASGLTFKSYAMGWNRQAPGKERELVAVISSSGGRTYYADSVKGRFTISRDNAKNTVYLQMNSLKPEDTAVYYCAADGSYGKWGGHAMYYLGQGTQVTVSS", "polyreactivity (PSR sort gate)": "high polyreactivity"}, {"sequence": "QVQLVESGGGLVQAGGSLRLSCAASGLTFKVNAMGWYRQAPGRGRELVAAISVSGGSTYYADSVKGRFTISRDNAKNTVYLQMNSLKPEDTAVYYCNADFYYRYYGAYDYWGQGTQVTVSS", "polyreactivity (PSR sort gate)": "high polyreactivity"}, {"sequence": "QVQLVESGGGLVQAGGSLRLSCAASGLTFKVYDMGWYRKAPGKERELVAAIWSDGDTYYADSVKGRFTISRDNAKNTVYLQMNSLKPEDTGVYYCAAVPGCTVHFVYGNKYDYWGQGTQVTVSS", "polyreactivity (PSR sort gate)": "low polyreactivity"}, {"sequence": "QVQLVESGGGLVQAGGSLRLSCAASGLTFKYYTMGWYRQAPGKERELVADISRTGRTSYADSVKGRFTISRDNAKNTVYLQMNSLKPEDTAVYYCNALAGIAQRRTGYYNPGDYWGQGTQVTVSS", "polyreactivity (PSR sort gate)": "high polyreactivity"}, {"sequence": "QVQLVESGGGLVQAGGSLRLSCAASGLTFLDYDMGWYRQAPGKERELVADIDWSGGNTYYADSVKGRFTISRDNAKNTVYLQMNSLKPEDTAVYYCNTVTEAVTRRYDYWGQGTQVTVSS", "polyreactivity (PSR sort gate)": "low polyreactivity"}, {"sequence": "QVQLVESGGGLVQAGGSLRLSCAASGLTFLKYAMGWYRQAPGKERELVAAITGSGGRTYYADSVKGRFTISRDNSKNTVYLHMNSLKPEDTAVYYCAADDYFHDDYWGLGTQVTVSS", "polyreactivity (PSR sort gate)": "high polyreactivity"}, {"sequence": "QVQLVESGGGLVQAGGSLRLSCAASGLTFLLNAMGWYRQAPGKERELVAAITWRGGRTYYADSVKGRFTISRDNAKNTVYLQMNSLKPEDTAVYYCAAVPVVQSQPTYYYWGQGTQVTVSS", "polyreactivity (PSR sort gate)": "high polyreactivity"}, {"sequence": "QVQLVESGGGLVQAGGSLRLSCAASGLTFLYNAMGWYRRATGKERELVASITNGGSTNYADSVKGRFTISRDNEKNTVYLQMNSLKPEDTAVYYCAKAAVDVGQRTPWEYDYWGQGTQVTVSS", "polyreactivity (PSR sort gate)": "low polyreactivity"}, {"sequence": "QVQLVESGGGLVQAGGSLRLSCAASGLTFLYYAMGWYRQAPGKERELVAAISRSGGSTYYADSVKGRFTISRDNAKNTVYLQMNSLKPEDTAVYYCAAGRRGGKQGGTRGGDYWGQGTQVTVSS", "polyreactivity (PSR sort gate)": "high polyreactivity"}, {"sequence": "QVQLVESGGGLVQAGGSLRLSCAASGLTFLYYSMGWYRQAPGKERELVAAISTRGGSTYYADSVKGRFTISRDNAKNTVYLQMNSLKPEDTAVYYCNAKLIVTPGRGDYWGQGTQVSVSS", "polyreactivity (PSR sort gate)": "high polyreactivity"}, {"sequence": "QVQLVESGGGLVQAGGSLRLSCAASGLTFNFYAMGWYRQAPGKEREFVAAISRSGGSTHYADSVKGRFTISRDNAKYTVYLQMNSLKPEDTAVYYCAADGGRKNYDYWGQGTQVTVSS", "polyreactivity (PSR sort gate)": "high polyreactivity"}, {"sequence": "QVQLVESGGGLVQAGGSLRLSCAASGLTFNKYAMGWYRQGPGKERELVAAISYRGGSTYYADSVKGRFTISRDNAKNTVYLQMNSLKPEDTAVYYCAVRYWALDDQYRYGSWGQGTQVTVSS", "polyreactivity (PSR sort gate)": "high polyreactivity"}, {"sequence": "QVQLVESGGGLVQAGGSLRLSCAASGLTFPENAMGWYRQAPGKEREMVASISDSDGITFYADSVKGSFTISRDNAKNTVYLQMNSLKPEDTAVYYCAADVAIAIPFSYDYWGQGSQVTVSS", "polyreactivity (PSR sort gate)": "low polyreactivity"}, {"sequence": "QVQLVESGGGLVQAGGSLRLSCAASGLTFPIYAMGWYRQAPGKEREYVAVITTSGGSTYYADSVKGRFTISRDNAKNTVYLQMNSLKPEDTAVYYCNARGIRHYYWGQGTQVTVSS", "polyreactivity (PSR sort gate)": "high polyreactivity"}, {"sequence": "QVQLVESGGGLVQAGGSLRLSCAASGLTFPSYAMGWYRQAPGKERELVAAISSGDSTNYADSVKGRFTISRDNAKNTVYLQMNSLKPEDTAVYYCAVGLPHGGRRLYGSWYRFDYWGQGTQVTVSS", "polyreactivity (PSR sort gate)": "low polyreactivity"}, {"sequence": "QVQLVESGGGLVQAGGSLRLSCAASGLTFPSYAMGWYRQAPGKVSELVAAISARGGGTYYADSVKGRFTISRDNAKNTVYLQMNSLKPEDTAVYYCAADPVYAGPGYDYWGQGTQVTVSS", "polyreactivity (PSR sort gate)": "high polyreactivity"}, {"sequence": "QVQLVESGGGLVQAGGSLRLSCAASGLTFPYNVMGWYRQAPGKERELVASITSVGTTDYADSVKGRFTISRDNAKNTVYLQMNSLNPEDTAVYYCAADVTLFYWWYGKEDYDYWGQGTEVTVSS", "polyreactivity (PSR sort gate)": "low polyreactivity"}, {"sequence": "QVQLVESGGGLVQAGGSLRLSCAASGLTFQEYAMGWYRQAPGKERELVAAISWSGGSTYYADSVKGRFTISRDNAKNTVYLQMNSLKPEDTAVYYCAAEAYEEFITGWYAYDYWGQGTQVTVSS", "polyreactivity (PSR sort gate)": "high polyreactivity"}, {"sequence": "QVQLVESGGGLVQAGGSLRLSCAASGLTFQGYAMGWYRQAPGKERELVAAISSSGDITYYADSVKGRFTISRDNAKNTVYLQMNSLKPEDTAVYYCAAEAEYYVYGTYDYWGQGTQVTVSS", "polyreactivity (PSR sort gate)": "high polyreactivity"}, {"sequence": "QVQLVESGGGLVQAGGSLRLSCAASGLTFQKNVMGWYRQAPGKERELVAAIRASSSSTYYADSVKGRFTISRDNAKNTVYLQMNSLKPEDTAVYYCAAPRLIKYDYWGQGTQVTVSS", "polyreactivity (PSR sort gate)": "high polyreactivity"}, {"sequence": "QVQLVESGGGLVQAGGSLRLSCAASGLTFQPNVMGWYRQATGKERELVAAISVRTTRTYYADSVKGRFTISRDNAKNTVYLQMNSLKPEDTAVYYCNTDISRNYYWALYGYWGQGTQVTVSS", "polyreactivity (PSR sort gate)": "low polyreactivity"}]}]}
